Sequences and labels used below:
B1: DXDU01_3#051 (antibody, V domains shown)
VH: QVQLVESGGGLVQPGRSLRLSCAASGFTFSNAWMHWVRQAPGKGLEWVAQIKDRGQQYNAYYAPSVKGRFTISRDDSKNSIYLQMNSLKTEDTAVYYCHYVHYASASSVLPGYGVDAWGQGTTVTVSS
VL: DIVMTQSPLSLPVTPGEPASISCRSSQSLVHSNRNTYLHWYQQKPGQAPRLLIYKVSNRFSGVPDRFSGSGSGTDFTLKISRVEAEDVGVYYCGQGTQVPYTFGQGTKLEIK
notes: Human IgG1; light chain GLS3000 (kappa); also called dBBDu127
B2: DADU01_3#001 (antibody, V domains shown)
VH: QVQLVESGGGLVQPGRSLRLSCAASGFTFSIAWMHWVRQAPGKGLEWVAQIKDRVNAYEAYYAPSVKGRFTISRDDSKNSIYLQMNSLKTEDTAVYYCRYVHYASYYDLLGYGGVDAWGQGTTVTVSS
VL: B1 VL
notes: Human IgG1; light chain GLS3000 (kappa); also called dBBDu126; dBBDu_126
B3: DXDU01_3#094 (antibody, V domains shown)
VH: B1 VH with R54K, Q56N, Q57A, N59A, S107A, S108G, V109G, Y113F
VL: B1 VL
notes: Human IgG1; light chain GLS3000 (kappa); also called dBBDu121

Experimental findings from patent publication US20210388087A1 (Chugai, published 2021) are described below.

Where a chain is given by its changes, count along the chain named. Where no end group is shown, it is not given here.

The first test addresses T1, human CD137-Fc (human, biotin-labeled).
T1 construct: if 90 already holds the Fc, drop the second piece; also called biotin-labeled human CD137 fused to human IgG1 Fc fragment; biotin-human CD137-Fc; not shown: human IgG1 Fc fragment
Description: bead ELISA on biotin-human CD137-Fc, 0 pmol free CD3e peptide. Background: An ELISA detects its analyte on a solid surface through an enzyme-linked reagent.
B1 had an ELISA signal of 3230.

Molecule B2 registered an ELISA signal of 116000.

For B3, the ELISA signal was found to be 3610.

A further test has as its target T1, human CD137-Fc. The test can be described thus: bead ELISA on biotin-human CD137-Fc with 125 pmol/well free CD3e peptide as competitor.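 Note: Streptavidin-coated magnetic beads in blocking buffer as the capture surface, well signal read as fluorescence 2 min after adding APS-5 substrate.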
In the case of B1, the ELISA signal stood at 2200.

B2 had an ELISA signal of 2610.

Take B3: the ELISA signal is 1830.

For another test, the target named is T1, human CD137-Fc. The test can be described thus: bead ELISA on biotin-human CD137-Fc with 62.5 pmol free CD3e peptide as competitor.
The molecule B1 displayed an ELISA signal of 10800.

Molecule B2 yielded an ELISA signal of 15100.

Take B3: the ELISA signal turned out to be 9660.

A further test deals with T1, human CD137-Fc. Description: bead ELISA on biotin-human CD137-Fc with 62.5 pmol free human Fc (control competitor).
B1 displayed an ELISA signal of 128000.

In turn, B2 gave an ELISA signal of 81000.

On to B3, for which the ELISA signal amounted to 108000.

For another test, the target named is T2, Biotin-labeled CD3 epsilon peptide antigen (human, also: biotin-labeled, site not given here).
T2 construct: also called CD3 peptide
T2 peptide: QDGNEEMGGITQTPY
Description: bead ELISA, IgG on biotinylated CD3 epsilon peptide, luminescence.
Take B1: the RLU came out at 169000 RLU and the “S/N ratio (CD3 peptide/non coating)” value was 145.

Consider B2, for which the RLU amounted to 198000 RLU and the “S/N ratio (CD3 peptide/non coating)” value came to 146.

In the case of B3, the RLU was 165000 RLU and the “S/N ratio (CD3 peptide/non coating)” value stood at 141.

For another test, the target named is T1, human CD137-Fc. The test can be described thus: bead ELISA on biotin-human CD137-Fc, free CD3e peptide vs free Fc.
As to B1, the Signal decrease stood at 91.6%.

As for B2, the Signal decrease turned out to be 81.3%.

B3 registered a Signal decrease of 91.1%.

Another test concerns the target T1, human CD137-Fc. The test can be described thus: bead ELISA on biotin-human CD137-Fc, 125 vs 0 pmol free CD3e peptide.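 Note: target captured on streptavidin-coated magnetic beads, signal read as fluorescence 2 min after adding APS-5 substrate.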
Turning to B1, the Signal decrease stood at 32%.

In the case of B2, the Signal decrease is 97.8%.

The molecule B3 returned a Signal decrease of 49.4%.

The next test has as its target T3, cyno CD137-Fc (cynomolgus monkey; human, limits assumed, biotin-labeled).
T3 construct: whole entry 92 named; also called biotin-labeled cynomolgus monkey CD137 fused to human IgG1 Fc fragment; not shown: human IgG1 Fc fragment
T3 chain: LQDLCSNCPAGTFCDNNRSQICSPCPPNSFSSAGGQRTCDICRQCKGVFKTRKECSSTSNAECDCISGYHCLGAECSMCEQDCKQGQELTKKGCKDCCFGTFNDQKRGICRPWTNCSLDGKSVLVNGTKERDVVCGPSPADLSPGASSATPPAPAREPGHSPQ
Description: bead ELISA, IgG on biotinylated antigen, luminescence.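 Note: biotinylated antigen captured on streptavidin magnetic beads, then incubated with purified IgG at 50 ng/µL for 1 h at room temperature before detection.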
Regarding B1, the RLU was 10900 RLU and the “S/N ratio (cyno CD137-Fc/Fc)” value worked out at 3.73.

Turning to B2, the RLU was found to be 1210 RLU and the “S/N ratio (cyno CD137-Fc/Fc)” value was found to be 0.687.

Regarding B3, the RLU stood at 19100 RLU and the “S/N ratio (cyno CD137-Fc/Fc)” value stood at 8.09.

The target of a further test is T1, human CD137-Fc. The test is described as above.
For B1, the RLU stood at 38100 RLU and the “S/N ratio (human CD137-Fc/Fc)” value amounted to 13.1.

For B2, the RLU stood at 95300 RLU and the “S/N ratio (human CD137-Fc/Fc)” value was 54.1.

Turning to B3, the RLU was found to be 24200 RLU and the “S/N ratio (human CD137-Fc/Fc)” value turned out to be 10.2.
